Assay [1] deals with T1, rFVIII (Homo sapiens, UniProt P00451). The experiment in a line: confirmatory binding assay in filtration plate format using 14C-rFVIII. Particulars: for 0.5M CaCl2 % total / 2% acetic acid % total / 2% acetic acid dpm / 0.5M CaCl2 dpm: 5 mg beads; for 0.5M CaCl2 dpm: 5° C.; for beads % total / beads dpm: remaining on beads after washes. Summed up: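 Peptides synthesized on TOYOPEARL AF amino 650 M resin (0.1 mmole/g) were tested in triplicate after equilibration in 20 mM imidazole, 10 mM CaCl2, 0.105 M NaCl, pH 6.9. The beads were incubated 1 hour at 5° C with 20-30 nM 14C-rFVIII in neat PPF, then washed with buffer, 0.5 M and 1.0 M CaCl2, and 2% acetic acid. Mass balance was taken from dpm of each fraction and of the beads.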
T1 sequence (P00451 20-2351): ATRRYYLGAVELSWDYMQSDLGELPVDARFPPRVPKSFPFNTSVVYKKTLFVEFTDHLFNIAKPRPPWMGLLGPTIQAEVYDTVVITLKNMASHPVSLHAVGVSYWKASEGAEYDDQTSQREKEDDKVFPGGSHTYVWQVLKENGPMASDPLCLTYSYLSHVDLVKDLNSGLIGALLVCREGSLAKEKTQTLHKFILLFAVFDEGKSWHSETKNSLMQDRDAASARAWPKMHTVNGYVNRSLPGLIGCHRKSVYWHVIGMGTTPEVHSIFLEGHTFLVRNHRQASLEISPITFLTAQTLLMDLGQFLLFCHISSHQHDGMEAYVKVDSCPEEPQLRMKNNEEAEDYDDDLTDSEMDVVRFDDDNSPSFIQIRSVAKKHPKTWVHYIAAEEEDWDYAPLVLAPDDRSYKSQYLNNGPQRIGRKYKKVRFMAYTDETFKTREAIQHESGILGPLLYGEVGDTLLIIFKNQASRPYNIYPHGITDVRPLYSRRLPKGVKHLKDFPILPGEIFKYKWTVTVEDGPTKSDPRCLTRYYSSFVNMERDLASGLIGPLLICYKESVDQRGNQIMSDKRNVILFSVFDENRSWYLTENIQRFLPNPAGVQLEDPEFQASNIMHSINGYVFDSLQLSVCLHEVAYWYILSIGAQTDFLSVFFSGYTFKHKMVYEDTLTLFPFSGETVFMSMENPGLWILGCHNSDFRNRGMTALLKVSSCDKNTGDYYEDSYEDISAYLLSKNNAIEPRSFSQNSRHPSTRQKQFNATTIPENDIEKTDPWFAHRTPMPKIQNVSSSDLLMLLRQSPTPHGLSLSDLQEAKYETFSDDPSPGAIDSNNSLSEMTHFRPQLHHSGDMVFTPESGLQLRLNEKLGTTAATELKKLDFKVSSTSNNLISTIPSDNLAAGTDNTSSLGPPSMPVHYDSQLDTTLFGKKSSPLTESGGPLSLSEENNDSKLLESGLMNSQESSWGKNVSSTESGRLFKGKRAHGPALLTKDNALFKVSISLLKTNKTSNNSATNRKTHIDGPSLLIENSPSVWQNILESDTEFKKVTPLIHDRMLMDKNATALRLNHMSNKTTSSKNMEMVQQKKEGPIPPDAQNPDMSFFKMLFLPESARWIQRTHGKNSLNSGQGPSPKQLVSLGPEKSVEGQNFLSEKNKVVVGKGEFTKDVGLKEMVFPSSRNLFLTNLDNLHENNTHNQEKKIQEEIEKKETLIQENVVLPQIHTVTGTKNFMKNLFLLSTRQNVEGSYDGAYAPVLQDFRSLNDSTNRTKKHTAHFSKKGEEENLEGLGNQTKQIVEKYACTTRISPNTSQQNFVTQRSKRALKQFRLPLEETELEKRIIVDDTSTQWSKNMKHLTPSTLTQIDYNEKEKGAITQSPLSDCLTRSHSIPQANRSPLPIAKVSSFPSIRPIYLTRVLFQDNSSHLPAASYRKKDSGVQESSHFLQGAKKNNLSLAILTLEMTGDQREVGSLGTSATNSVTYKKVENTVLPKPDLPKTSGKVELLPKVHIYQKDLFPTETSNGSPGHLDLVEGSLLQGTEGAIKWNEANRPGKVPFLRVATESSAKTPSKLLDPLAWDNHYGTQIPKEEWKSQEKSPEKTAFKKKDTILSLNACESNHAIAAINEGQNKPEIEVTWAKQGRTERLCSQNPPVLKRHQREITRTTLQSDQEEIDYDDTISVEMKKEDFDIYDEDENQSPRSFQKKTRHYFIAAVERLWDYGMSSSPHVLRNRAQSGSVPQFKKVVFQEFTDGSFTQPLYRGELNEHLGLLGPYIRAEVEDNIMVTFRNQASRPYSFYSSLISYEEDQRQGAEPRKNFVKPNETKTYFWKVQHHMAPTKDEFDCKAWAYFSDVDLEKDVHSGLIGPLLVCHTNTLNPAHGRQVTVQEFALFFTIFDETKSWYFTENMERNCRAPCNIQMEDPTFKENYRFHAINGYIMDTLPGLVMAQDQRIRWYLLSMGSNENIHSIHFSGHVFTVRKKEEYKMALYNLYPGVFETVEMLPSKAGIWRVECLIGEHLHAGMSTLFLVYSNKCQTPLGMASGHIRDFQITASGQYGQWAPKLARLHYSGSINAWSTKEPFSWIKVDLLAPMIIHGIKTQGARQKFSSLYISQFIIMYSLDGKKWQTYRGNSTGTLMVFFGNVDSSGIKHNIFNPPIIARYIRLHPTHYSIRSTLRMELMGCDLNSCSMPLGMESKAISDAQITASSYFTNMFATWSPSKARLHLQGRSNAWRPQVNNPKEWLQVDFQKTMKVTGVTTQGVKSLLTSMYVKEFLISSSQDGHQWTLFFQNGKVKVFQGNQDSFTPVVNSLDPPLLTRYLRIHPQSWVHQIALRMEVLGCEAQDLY
T1 sequence (P00451 1668-2351 limits assumed): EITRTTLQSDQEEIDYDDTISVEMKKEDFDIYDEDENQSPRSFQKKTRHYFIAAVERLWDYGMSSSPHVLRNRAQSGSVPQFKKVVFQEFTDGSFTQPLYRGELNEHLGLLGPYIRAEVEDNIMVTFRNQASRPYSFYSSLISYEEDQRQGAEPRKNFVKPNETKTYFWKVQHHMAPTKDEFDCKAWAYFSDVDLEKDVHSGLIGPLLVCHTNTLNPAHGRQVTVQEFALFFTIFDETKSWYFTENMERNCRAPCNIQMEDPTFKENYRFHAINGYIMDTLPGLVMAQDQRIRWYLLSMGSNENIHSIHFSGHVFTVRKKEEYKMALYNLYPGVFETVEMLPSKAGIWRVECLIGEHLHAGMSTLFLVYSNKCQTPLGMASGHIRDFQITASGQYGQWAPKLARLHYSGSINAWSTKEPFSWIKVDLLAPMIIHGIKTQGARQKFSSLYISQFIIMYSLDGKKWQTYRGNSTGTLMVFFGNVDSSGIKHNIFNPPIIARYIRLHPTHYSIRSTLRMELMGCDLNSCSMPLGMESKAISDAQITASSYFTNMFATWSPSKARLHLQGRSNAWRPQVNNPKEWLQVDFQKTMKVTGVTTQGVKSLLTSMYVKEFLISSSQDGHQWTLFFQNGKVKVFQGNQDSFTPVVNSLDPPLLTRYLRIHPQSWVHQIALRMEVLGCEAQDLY

Assay [2] deals with T1, rFVIII. Description: column format binding assay, rFVIII mass per fraction by sandwich capture ELISA for the light chain. Particulars: for Flow through ng: 10,000 ng rFVIII in 1:10 PPF injected, 5° C.; for ELISA results % total: Table 9, 0.5M CaCl2 fraction. Summed up:
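Peptide resin columns (0.4×5 cm, 5 °C) loaded with 10,000 ng rFVIII in 1:10 PPF, 10 min residence time; step elution with 0.5 M and 1.0 M CaCl2 then 2% acetic acid (neutralized). Fraction rFVIII mass by light-chain sandwich ELISA; activity by chromogenic substrate; total protein by A280.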
In general terms: In an ELISA, binding on a coated surface is turned into a signal by an enzyme label.

The target in assay [3] is T1, rFVIII. The experiment in a line: rFVIII activity recovery from peptide columns by chromogenic substrate assay (COATEST). Particulars: for 0.5M CaCl2 % total: activity recovery; for Flow through IU: rFVIII activity in fraction; for Activity results % total: Table 9, 0.5M CaCl2 fraction. Format: biochemical. Summed up: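 Peptide resin columns (0.4×5 cm, 5°C) loaded with 10,000 ng rFVIII in 1:10 PPF, step-eluted with 0.5 M and 1.0 M CaCl2, then 2% acetic acid (neutralized with Tris). Fractions stabilized with hSA; rFVIII activity recovery by chromogenic substrate assay against a MEGA 1-calibrated standard.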

The mark [4] stands for this setting: Table 4, 14C-rFVIII 30 nM in PPF.
The mark [5] stands for this setting: Table 4, 14C-rFVIII 30 nM in PPF, 5.0 × 10^15 dpm/mole.
The mark [6] stands for this setting: Table 3, 14C-rFVIII 20 nM in PPF.

Turning to 21 (HFQIFG) [compound 21], in the assay with rFVIII [1] (Table 4, 14C-rFVIII 30 nM), the Total dpm is 3484 dpm, the beads % total came to 16% and the beads dpm worked out at 554 dpm. Moreover, in the assay with rFVIII [1] (setting [4]), the “0.5M CaCl2 % total” value came to 21%, the “2% acetic acid % total” value is given as 63% and the “2% acetic acid dpm” value amounted to 2208 dpm. Also, the “0.5M CaCl2 dpm” value with rFVIII [1] (setting [5]) turned out to be 722 dpm. For the same substance, in the assay with rFVIII [2] (Table 6), the “0.5M CaCl2 ng” value came to 1239 ng, the “0.5M CaCl2 % total” value is given as 22%, the “2% acetic acid % total” value worked out at 60% and the “2% acetic acid ng” value was determined as 3284 ng. In addition, in the assay with rFVIII [2] (Table 6), the “Flow through % total” value was determined as 0%, the Total ng is 5510 ng and the Flow through ng was 0 ng. In the assay with rFVIII [3] (Table 8), the “0.5M CaCl2 IU” value worked out at 11.4 IU, the “2% acetic acid % total” value was determined as 19%, the “2% acetic acid IU” value is reported as 4.1 IU and the “Flow through % total” value is recorded as 0%. For the same substance, in the assay with rFVIII [3] (Table 8), the “Total IU” value amounted to 21.2 IU, the “0.5M CaCl2 % total” value amounted to 53% and the “Flow through IU” value came to 0.0 IU.

As to 5 (LNWKYG) [compound 5], in the assay with rFVIII [1] (Table 3, 14C-rFVIII 20 nM), the Total dpm is on record as 4091 dpm, the beads % total was determined as 3% and the beads dpm was 143 dpm. Moreover, in the assay with rFVIII [1] (setting [6]), the “0.5M CaCl2 % total” value was 86%, the “2% acetic acid % total” value turned out to be 10% and the “2% acetic acid dpm” value is given as 430 dpm. Also, the “0.5M CaCl2 dpm” value with rFVIII [1] (Table 3, 14C-rFVIII 20 nM in PPF, 3.0 × 10^15 DPM/mole) stood at 3519 dpm. In the assay with rFVIII [2] (Table 5), the “0.5M CaCl2 ng” value is listed as 5530 ng, the “0.5M CaCl2 % total” value stood at 97%, the “2% acetic acid % total” value is 2% and the “2% acetic acid ng” value was determined as 125 ng. In addition, in the assay with rFVIII [2] (Table 5), the “Flow through % total” value amounted to 0%, the Total ng amounted to 5680 ng and the Flow through ng amounted to 25 ng. Also, the “ELISA results % total” value in the assay with rFVIII [2] turned out to be 97%. Besides, in the assay with rFVIII [3] (Table 7), the “0.5M CaCl2 IU” value is 36.3 IU, the “2% acetic acid % total” value was 3%, the “2% acetic acid IU” value was 1.2 IU and the “Flow through % total” value turned out to be 0%. In the assay with rFVIII [3] (Table 7), the “Total IU” value came out at 37.8 IU, the “0.5M CaCl2 % total” value came out at 96% and the “Flow through IU” value amounted to 0.0 IU. For the same substance, in the assay with rFVIII [3], the “Activity results % total” value turned out to be 96%.

In the case of 19 (FHFGLQ) [compound 19], in the assay with rFVIII [1] (Table 4, 14C-rFVIII 30 nM), the Total dpm was determined as 2987 dpm, the beads % total was found to be 13% and the beads dpm stood at 382 dpm. In the assay with rFVIII [1] (setting [4]), the “0.5M CaCl2 % total” value amounted to 15%, the “2% acetic acid % total” value amounted to 72% and the “2% acetic acid dpm” value is 2148 dpm. For the same substance, in the assay with rFVIII [1] (setting [5]), the “0.5M CaCl2 dpm” value is 457 dpm. In addition, in the assay with rFVIII [2] (Table 6), the “0.5M CaCl2 ng” value was found to be 1075 ng, the “0.5M CaCl2 % total” value turned out to be 25%, the “2% acetic acid % total” value was 60% and the “2% acetic acid ng” value was 2569 ng. For the same substance, in the assay with rFVIII [2] (Table 6), the “Flow through % total” value was determined as 0%, the Total ng is reported as 4283 ng and the Flow through ng is given as 0 ng. In the assay with rFVIII [3] (Table 8), the “0.5M CaCl2 IU” value turned out to be 9.9 IU, the “2% acetic acid % total” value was 7%, the “2% acetic acid IU” value came to 1.4 IU and the “Flow through % total” value came out at 2%. For the same substance, in the assay with rFVIII [3] (Table 8), the “Total IU” value is 19.5 IU, the “0.5M CaCl2 % total” value was 51% and the “Flow through IU” value turned out to be 0.5 IU.

As to 11 (NAIFQW) [compound 11], in the assay with rFVIII [1] (Table 4, 14C-rFVIII 30 nM), the Total dpm amounted to 2208 dpm, the beads % total came out at 29% and the beads dpm is given as 641 dpm. In addition, in the assay with rFVIII [1] (setting [4]), the “0.5M CaCl2 % total” value was found to be 48%, the “2% acetic acid % total” value is given as 23% and the “2% acetic acid dpm” value was found to be 518 dpm. Besides, the “0.5M CaCl2 dpm” value with rFVIII [1] (setting [5]) is on record as 1049 dpm. Moreover, in the assay with rFVIII [2] (Table 6), the “0.5M CaCl2 ng” value is 7481 ng, the “0.5M CaCl2 % total” value was found to be 78%, the “2% acetic acid % total” value is 11% and the “2% acetic acid ng” value is reported as 1069 ng. Besides, in the assay with rFVIII [2] (Table 6), the “Flow through % total” value came out at 7%, the Total ng came to 9641 ng and the Flow through ng worked out at 639 ng. In addition, in the assay with rFVIII [2], the “ELISA results % total” value was 78%. Further, in the assay with rFVIII [3] (Table 8), the “0.5M CaCl2 IU” value worked out at 54.4 IU, the “2% acetic acid % total” value is on record as 0%, the “2% acetic acid IU” value stood at 0.0 IU and the “Flow through % total” value worked out at 4%. In addition, in the assay with rFVIII [3] (Table 8), the “Total IU” value worked out at 60.4 IU, the “0.5M CaCl2 % total” value is recorded as 90% and the “Flow through IU” value was determined as 2.5 IU. The “Activity results % total” value in the assay with rFVIII [3] is recorded as 90%.

In the assay with rFVIII [1] (Table 4, 14C-rFVIII 30 nM), 22 (FVFLVR) [compound 22] registered a Total dpm of 4116 dpm, a beads % total of 65% and a beads dpm of 2658 dpm. Moreover, in the assay with rFVIII [1] (setting [4]), the “0.5M CaCl2 % total” value is 16%, the “2% acetic acid % total” value came to 19% and the “2% acetic acid dpm” value is recorded as 783 dpm. Further, the “0.5M CaCl2 dpm” value with rFVIII [1] (setting [5]) turned out to be 675 dpm. Also, the “binding of rFVIII in words” value with rFVIII [1] (plate format) is given as “tight binding”. In the assay with rFVIII [2] (Table 6), the “0.5M CaCl2 ng” value came to 4 ng, the “0.5M CaCl2 % total” value was determined as 0%, the “2% acetic acid % total” value is on record as 100% and the “2% acetic acid ng” value amounted to 4500 ng. In the assay with rFVIII [2] (Table 6), the “Flow through % total” value worked out at 0%, the Total ng amounted to 4504 ng and the Flow through ng came out at 0 ng. In addition, in the assay with rFVIII [3] (Table 8), the “0.5M CaCl2 IU” value is reported as 0.0 IU, the “2% acetic acid % total” value is listed as 100%, the “2% acetic acid IU” value is 2.3 IU and the “Flow through % total” value is reported as 0%. For the same substance, in the assay with rFVIII [3] (Table 8), the “Total IU” value stood at 2.3 IU, the “0.5M CaCl2 % total” value amounted to 0% and the “Flow through IU” value is listed as 0.0 IU.

In the assay with rFVIII [1] (Table 4, 14C-rFVIII 30 nM), 15 (VYGVGG) [compound 15] yielded a Total dpm of 2330 dpm, a beads % total of 2% and a beads dpm of 53 dpm. In the assay with rFVIII [1] (setting [4]), the “0.5M CaCl2 % total” value turned out to be 93%, the “2% acetic acid % total” value is 5% and the “2% acetic acid dpm” value was found to be 115 dpm. Also, in the assay with rFVIII [1] (setting [5]), the “0.5M CaCl2 dpm” value is recorded as 2162 dpm. Also, in the assay with rFVIII [2] (Table 6), the “0.5M CaCl2 ng” value was 4611 ng, the “0.5M CaCl2 % total” value is listed as 55%, the “2% acetic acid % total” value amounted to 1% and the “2% acetic acid ng” value stood at 121 ng. Further, in the assay with rFVIII [2] (Table 6), the “Flow through % total” value stood at 42%, the Total ng is recorded as 8427 ng and the Flow through ng turned out to be 3572 ng. In addition, the “ELISA results % total” value with rFVIII [2] was determined as 55%. In addition, in the assay with rFVIII [3] (Table 8), the “0.5M CaCl2 IU” value is given as 27.2 IU, the “2% acetic acid % total” value worked out at 0%, the “2% acetic acid IU” value is on record as 0.08 IU and the “Flow through % total” value came out at 38%. In addition, in the assay with rFVIII [3] (Table 8), the “Total IU” value was 45.4 IU, the “0.5M CaCl2 % total” value came to 60% and the “Flow through IU” value was found to be 17.3 IU. Besides, the “Activity results % total” value with rFVIII [3] is 60%.

In the assay with rFVIII [1] (Table 4, 14C-rFVIII 30 nM), 14 (EPRVIG) [compound 14] yielded a Total dpm of 2184 dpm, a beads % total of 3% and a beads dpm of 60 dpm. Also, in the assay with rFVIII [1] (setting [4]), the “0.5M CaCl2 % total” value amounted to 91%, the “2% acetic acid % total” value amounted to 6% and the “2% acetic acid dpm” value is reported as 130 dpm. Also, the “0.5M CaCl2 dpm” value with rFVIII [1] (setting [5]) was found to be 1994 dpm. For the same substance, in the assay with rFVIII [2] (Table 6), the “0.5M CaCl2 ng” value was 2850 ng, the “0.5M CaCl2 % total” value is listed as 32%, the “2% acetic acid % total” value worked out at 1% and the “2% acetic acid ng” value is recorded as 75 ng. Further, in the assay with rFVIII [2] (Table 6), the “Flow through % total” value stood at 66%, the Total ng is on record as 8851 ng and the Flow through ng was 5828 ng. For the same substance, the “ELISA results % total” value with rFVIII [2] is given as 32%. In addition, in the assay with rFVIII [3] (Table 8), the “0.5M CaCl2 IU” value came to 14.7 IU, the “2% acetic acid % total” value is 0%, the “2% acetic acid IU” value was determined as 0.00 IU and the “Flow through % total” value came to 73%. For the same substance, in the assay with rFVIII [3] (Table 8), the “Total IU” value is reported as 58.6 IU, the “0.5M CaCl2 % total” value was determined as 25% and the “Flow through IU” value amounted to 42.9 IU. Besides, in the assay with rFVIII [3], the “Activity results % total” value is reported as 25%.

The record behind these values is patent US6191256A, “Recombinant factor VIII binding peptides” (Bayer Corporation, priority 1998, dated 2001).
